Experiments:
[1] = tested on: 3T3-L1 cells; experiment: Expression of genes associated with adipocyte differentiation, quantitative RT-PCR; type: cell-based; conditions: mouse AIM
Experimental: The cells cultured in the above-mentioned five schedules (a) to (e) in Examples 2 and 3 above were collected on the 10th day (day 12) after the initiation of the stimuli for differentiation induction, and the expression of genes associated with adipose differentiation was analyzed using quantitative RT-PCR (QPCR).

[2] = tested on: 3T3-L1 cells; experiment: Endocytosis of AIM into differentiated 3T3-L1 cells (confocal and immunoelectron microscopy); type: cell-based, mouse
Experimental: Subsequently, the cells were collected, and intracellularly stained using an anti-AIM antibody. Further, nuclei in the cells were stained using DAPI.
FIG. 16A and FIG. 16B show immunoelectron micrographs of the cells cultured for 3 hours (3 hr) and 12 hours (overnight) after being loaded with AIM, respectively.

[3] = tested on: AIM-/- macrophages; conditions: AIM-/- macrophages loaded with recombinant AIM molecules; Document 1; cited from earlier work
[4] = tested on: adipocytes in the adipose tissue of AIM-/- mice; experiment: Endocytosis of injected rAIM into adipose tissue of AIM-/- mice (histology); type: in vivo, mouse; conditions: 3 hours
Experimental: Further, mouse rAIM was directly injected into epididymal adipose tissue in obese AIM^−/− mice, and the adipose tissue was histologically analyzed. That is, total 100 μg of rAIM was directly injected into several sites of the epididymal adipose tissue. At 3 hours after the injection, tissue sections from the epididymal adipose tissue were made, and the tissue sections were stained with the anti-AIM antibody and the anti-macrophage antibody.
In addition, rAIM was systemically administered by intravenous injection to AIM^−/− mice, and subsequently adipose tissues were histologically analyzed. That is, 200 μg of rAIM was systemically administered by the intravenous injection to the AIM^−/− mice. At 3 hours after the injection, tissue sections were made from the epididymal adipose tissue, and the tissue sections were stained with the anti-AIM antibody and the anti-macrophage antibody.

[5] = biological target: T1, endogenous FAS (Mus musculus, UniProt P19096); experiment: Co-precipitation of endocytosed HA-tagged rAIM with endogenous FAS from adipose tissue lysates; type: binding; conditions: HA-tagged rAIM injected into AIM-/- mice, adipose tissue lysate, anti-HA antibody, Western blotting for FAS
T1 construct: from tissue; host or cells: epididymal adipose tissue of obese AIM-/- mice
Experimental: Further, the endocytosed rAIM was precipitated using lysates derived from those adipose tissues to examine whether endogenous FAS was co-precipitated or not. That is, the presence of FAS in the precipitate was analyzed by Western blotting using HA-tagged rAIM and an anti-HA antibody.
It was confirmed that AIM was bound to FAS both in vivo and in vitro. That is, mouse rAIM tagged with HA in a total amount of 100 μg was directly injected in several sites in the epididymal adipose tissue in the obese AIM^−/− mouse. At 3 hours after the injection, the epididymal adipose tissues were collected. Then, endocytosed rAIM was precipitated from a lysate of the adipose tissues using an anti-HA antibody. Then, it was analyzed by immunoblotting (WB) whether FAS was present in the resulting precipitate.

[6] = tested on: AIM-/- mice; experiment: Intraperitoneal rAIM in AIM-/- mice given HFD; type: in vivo, mouse
Experimental: While giving HFD to AIM^−/− mice for 15 weeks, mouse rAIM was intraperitoneally injected into the AIM^−/− mice for the last 9 weeks to examine whether the administration of rAIM inhibits the increase of the adipose tissue mass. That is, rAIM was intraperitoneally injected three times a week into the AIM^−/− mice ((150 μg/injection/mouse)×(three times/week)=(450 μg/mouse/week)) over the last 9 weeks, and the body weight, the weight of the visceral fat, and the weight of the subcutaneous fat were measured in the 15th week. The body weight, the weight of the visceral fat, and the weight of the subcutaneous fat were also measured in the AIM^−/− mice as the control to which BSA (bovine serum albumin) had been intraperitoneally administered in the same administration schedule.
FIG. 30A, FIG. 30B, and FIG. 30C show the results (n=3) of measuring the body weight (Body) (g), the weight of the visceral adipose tissue (Visceral fat) (g), and the amount of the subcutaneous adipose tissue (Subcutaneous fat) (g) in the AIM/mice to which BSA was administered (BSA) and the AIM^−/− mice to which rAIM was administered (rAIM), respectively.
Further, mRNA levels of FSP27, perilipin, and adipophilin were evaluated in each of the AIM^−/− mice to which BSA was administered and the AIM^−/− mice to which rAIM was administered. The mRNA levels were measured using RNA isolated from epididymal fat and using QPCR.
FIG. 31 illustrates the mRNA levels (n=3) of FSP27, perilipin, and adipophilin evaluated in each of the AIM^−/− mice to which BSA was administered (BSA) and the AIM^−/− mice to which rAIM was administered (rAIM). It should be noted that values illustrated in FIG. 31 were normalized to GAPDH and represented as expressions relative to the results in the mice to which BSA had been injected.

[7] = biological target: T2, CD36 (Mus musculus, UniProt Q08857); experiment: Incorporation of intravenously injected rAIM into adipose tissue of CD36-/- and CD36+/+ mice; type: in vivo; conditions: mouse rAIM 300 μg/mouse intravenous, 16 hours, epididymal adipose tissue
T2 construct: endogenous in cells; host or cells: differentiated 3T3-L1 adipocytes
Experimental: Mouse rAIM was intravenously injected into each of a CD36^−/− mouse which was deficient for CD36 and a wild-type CD36^+/+ mouse, and the incorporation of rAIM into the adipose tissues was analyzed. That is, an injection prepared by dissolving rAIM in PBS was intravenously injected into each of the CD36^−/− mouse and the CD36^+/+ mouse (300 μg/mouse). At 16 hours after the injection, the mice were sacrificed, and tissue sections were made from their epididymal adipose tissue. Then, the tissue sections were stained with an anti-AIM antibody.

[8] = schedule (d): day 2 to day 4, cells collected day 12
[9] = epididymal fat, QPCR, rAIM ip versus BSA
[10] = mouse rAIM ip 150 μg/injection/mouse, three times/week, last 9 of 15 weeks HFD, versus BSA

T1 sequence (P19096 whole entry): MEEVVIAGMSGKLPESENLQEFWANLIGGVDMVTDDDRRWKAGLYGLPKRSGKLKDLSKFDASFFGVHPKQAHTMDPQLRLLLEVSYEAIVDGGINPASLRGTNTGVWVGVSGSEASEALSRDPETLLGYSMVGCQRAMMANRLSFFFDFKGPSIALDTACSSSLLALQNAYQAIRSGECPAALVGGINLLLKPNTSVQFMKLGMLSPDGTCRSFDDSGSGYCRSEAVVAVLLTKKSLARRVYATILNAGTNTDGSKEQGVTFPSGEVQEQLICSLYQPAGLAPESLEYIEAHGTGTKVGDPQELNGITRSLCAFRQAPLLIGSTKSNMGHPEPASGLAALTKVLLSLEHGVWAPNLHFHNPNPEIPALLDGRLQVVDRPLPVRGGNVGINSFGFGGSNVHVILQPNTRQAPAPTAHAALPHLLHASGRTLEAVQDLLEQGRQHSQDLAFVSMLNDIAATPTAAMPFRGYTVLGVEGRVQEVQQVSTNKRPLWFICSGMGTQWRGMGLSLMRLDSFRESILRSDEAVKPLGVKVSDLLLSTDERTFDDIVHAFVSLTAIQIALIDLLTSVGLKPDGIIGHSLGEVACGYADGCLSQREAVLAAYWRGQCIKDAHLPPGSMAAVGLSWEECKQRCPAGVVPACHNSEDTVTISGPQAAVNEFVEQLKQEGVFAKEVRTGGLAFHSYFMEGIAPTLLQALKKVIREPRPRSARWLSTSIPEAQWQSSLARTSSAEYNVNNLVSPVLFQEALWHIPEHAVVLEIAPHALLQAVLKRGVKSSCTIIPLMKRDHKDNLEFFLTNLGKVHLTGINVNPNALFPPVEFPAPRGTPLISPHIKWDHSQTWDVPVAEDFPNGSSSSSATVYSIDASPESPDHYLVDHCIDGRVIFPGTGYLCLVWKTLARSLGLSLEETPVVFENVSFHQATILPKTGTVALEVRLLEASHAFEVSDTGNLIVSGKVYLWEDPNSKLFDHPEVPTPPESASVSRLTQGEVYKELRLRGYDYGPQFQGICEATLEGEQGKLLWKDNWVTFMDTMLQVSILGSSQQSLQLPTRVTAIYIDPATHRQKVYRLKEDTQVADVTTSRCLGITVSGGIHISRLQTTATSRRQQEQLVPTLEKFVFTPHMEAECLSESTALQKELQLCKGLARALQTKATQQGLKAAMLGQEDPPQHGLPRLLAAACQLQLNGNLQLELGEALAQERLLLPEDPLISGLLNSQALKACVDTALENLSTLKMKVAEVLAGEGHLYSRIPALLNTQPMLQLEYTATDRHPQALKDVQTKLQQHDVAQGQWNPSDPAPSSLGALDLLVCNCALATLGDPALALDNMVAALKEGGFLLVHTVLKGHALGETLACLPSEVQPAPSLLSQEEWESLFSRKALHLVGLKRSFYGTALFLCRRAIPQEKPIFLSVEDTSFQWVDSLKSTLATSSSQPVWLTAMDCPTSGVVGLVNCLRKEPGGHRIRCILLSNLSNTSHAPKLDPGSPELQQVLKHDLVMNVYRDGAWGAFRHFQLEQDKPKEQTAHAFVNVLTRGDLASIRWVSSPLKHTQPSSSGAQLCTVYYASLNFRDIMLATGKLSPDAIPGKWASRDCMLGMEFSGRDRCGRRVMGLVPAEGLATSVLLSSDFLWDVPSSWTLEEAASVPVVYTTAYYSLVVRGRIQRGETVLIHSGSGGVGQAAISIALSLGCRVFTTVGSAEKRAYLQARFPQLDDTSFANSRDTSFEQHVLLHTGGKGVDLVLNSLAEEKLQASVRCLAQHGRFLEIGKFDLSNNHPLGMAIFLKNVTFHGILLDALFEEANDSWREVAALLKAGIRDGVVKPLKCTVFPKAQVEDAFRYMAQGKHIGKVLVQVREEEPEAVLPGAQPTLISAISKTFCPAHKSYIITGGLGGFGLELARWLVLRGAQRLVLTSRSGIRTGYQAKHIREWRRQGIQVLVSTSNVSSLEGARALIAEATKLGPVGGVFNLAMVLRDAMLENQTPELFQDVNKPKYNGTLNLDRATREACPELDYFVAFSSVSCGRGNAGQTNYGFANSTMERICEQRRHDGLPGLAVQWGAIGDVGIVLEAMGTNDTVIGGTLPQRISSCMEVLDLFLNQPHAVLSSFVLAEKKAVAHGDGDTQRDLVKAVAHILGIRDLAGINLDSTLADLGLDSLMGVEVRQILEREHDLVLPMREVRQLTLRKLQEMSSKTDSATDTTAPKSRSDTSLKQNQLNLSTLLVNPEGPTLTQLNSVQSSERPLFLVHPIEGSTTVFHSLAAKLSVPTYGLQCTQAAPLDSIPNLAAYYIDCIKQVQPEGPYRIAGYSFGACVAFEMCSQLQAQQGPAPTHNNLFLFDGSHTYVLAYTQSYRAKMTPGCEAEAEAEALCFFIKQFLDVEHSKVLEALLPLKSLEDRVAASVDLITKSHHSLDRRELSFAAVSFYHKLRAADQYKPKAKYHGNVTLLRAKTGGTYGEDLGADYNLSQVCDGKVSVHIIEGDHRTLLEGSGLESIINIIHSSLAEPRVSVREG
T2 sequence (Q08857 whole entry): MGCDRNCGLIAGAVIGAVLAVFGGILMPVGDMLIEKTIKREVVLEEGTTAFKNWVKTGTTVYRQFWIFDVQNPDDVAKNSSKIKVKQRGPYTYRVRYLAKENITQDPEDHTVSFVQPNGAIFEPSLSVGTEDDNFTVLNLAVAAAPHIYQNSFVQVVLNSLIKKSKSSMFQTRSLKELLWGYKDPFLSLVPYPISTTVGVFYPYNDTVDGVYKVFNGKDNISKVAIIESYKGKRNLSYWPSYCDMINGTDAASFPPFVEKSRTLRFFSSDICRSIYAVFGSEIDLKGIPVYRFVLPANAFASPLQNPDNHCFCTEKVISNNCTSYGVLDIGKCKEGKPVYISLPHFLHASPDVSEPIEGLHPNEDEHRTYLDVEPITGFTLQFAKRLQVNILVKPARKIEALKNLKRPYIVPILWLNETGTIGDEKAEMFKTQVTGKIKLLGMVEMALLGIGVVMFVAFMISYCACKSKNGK

B1: AIM: apoptosis inhibitor of macrophage, secretory protein with three SRCR domains; recombinant mouse and human AIM in Example 2, mouse AIM in Examples 3-16 (protein)
chain: ESPTKVQLVGGAHRCEGRVEVEHNGQWGTVCDDGWDRRDVAVVCRELNCGAVIQTPRGASYQPPASEQRVLIQGVDCNGTEDTLAQCELNYYVFDCSHEEDAGAQCENPDSDLLFIPEDVRLVDGPGHCQGRVEVLHQSQWSTVCKAGWNLQVSKVVCRQLGCGRALLTYGSCNKNTQGKGPIWMGKMSCSGQEANLRSCLLSRLENNCTHGEDTWMECEDPFELKLVGGDTPCSGRLEVLHKGSWGSVCDDNWGEKEDQVVCKQLGCGKSLHPSPKTRKIYGPGAGRIWLDDVNCSGKEQSLEFCRHRLWGYHDCTHKEDVEVICTDFDV
[1]; schedule (b): day 2 to day 12
  expression of the C/EBPα gene: almost completely inhibited
  expression of the CD36 gene: almost completely inhibited
  expression of the FAS gene: slightly increased
  expression of the Glut4 gene: almost completely inhibited
  expression of the PPARγ gene: almost completely inhibited
[1]; schedule (c): day -2 to day 2
  gene expression patterns compared with no AIM: not changed
[1]; schedule (d): day 2 to day 4
  expression of the FAS gene: slightly increased
[1]; [8]
  expression of the C/EBPα gene: almost completely inhibited
  expression of the CD36 gene: almost completely inhibited
  expression of the Glut4 gene: almost completely inhibited
  expression of the PPARγ gene: almost completely inhibited
[1]; schedule (e): day 6 to day 12
  gene expression patterns compared with no AIM: not changed
[2]; cells cultured in the presence of AIM for 3 hours
  localisation of AIM, immunoelectron microscope: accumulated like the dots on the membrane of particles thought to be endosomes
[2]; cells cultured in the presence of AIM for 12 hours
  localisation of AIM, immunoelectron microscope: migrated therefrom into the cytoplasm
[2]; immunoelectron microscope
  accumulation of AIM on phagosomes, phagolysosomes, or mitochondria: No AIM was accumulated
[2]; mouse AIM 5 μg/mL, 3 hours, day 4 of culture
  endocytosis of AIM into the cytoplasm, confocal microscope: endocytosed like dots
[3]
  resistance to the apoptosis: enhanced

B2: mouse AIM: protein consisting of the amino acid sequence shown in SEQ ID NO: 5; recombinant, purified from HEK293T culture supernatant (protein)
chain: MAPLFNLMLAILSIFVGSCFSESPTKVQLVGGAHRCEGRVEVEHNGQWGTVCDDGWDRRDVAVVCRELNCGAVIQTPRGASYQPPASEQRVLIQGVDCNGTEDTLAQCELNYYVFDCSHEEDAGAQCENPDSDLLFIPEDVRLVDGPGHCQGRVEVLHQSQWSTVCKAGWNLQVSKVVCRQLGCGRALLTYGSCNKNTQGKGPIWMGKMSCSGQEANLRSCLLSRLENNCTHGEDTWMECEDPFELKLVGGDTPCSGRLEVLHKGSWGSVCDDNWGEKEDQVVCKQLGCGKSLHPSPKTRKIYGPGAGRIWLDDVNCSGKEQSLEFCRHRLWGYHDCTHKEDVEVICTDFDV
modifications: mouse
notes: recombinant, purified from HEK293T culture supernatant
[4]; 200 μg rAIM intravenous injection
  staining of macrophages in the adipose tissues with the anti-AIM antibody: also stained
[4]; 200 μg rAIM intravenous injection, levels lower than after direct injection
  signals from the endocytosed rAIM in the adipocytes in the adipose tissues: detected
[4]; total 100 μg mouse rAIM directly injected into epididymal adipose tissue of obese AIM-/- mice
  endocytosis of exogenous rAIM into adipocytes in the adipose tissue: endocytosed into adipocytes
[5]
  co-precipitation of endocytosed rAIM and endogenous FAS: co-precipitated
[6]; [9]
  mRNA level of FSP27: low
  mRNA level of adipophilin: low
  mRNA level of perilipin: low
[6]; [10]
  body weight gain: remarkably small
  increase in weight of the subcutaneous fat: remarkably small
  increase in weight of the visceral fat: remarkably small
[7]
  amount of rAIM internalized into the adipocytes, CD36-/- mouse compared with CD36+/+ mouse: remarkably smaller
